Source: article PMC6448830

Target: HA-2B4 (A. trivirgatus 2B4 ectodomain fused to human 2B4 from residue 219 to the stop codon), on COS-7 cells (Aotus trivirgatus | human) (UniProt Q9BZW8)
Assay: flow cytometry on cells; cells incubated with the Fc fusion protein (8 μg/mL or a range of concentrations), then anti-human IgG (Fc specific) mAb and anti-mouse IgG-PE; 20% rabbit serum and 1% fetal bovine serum in PBS

A43-Fc fusion protein
percent of 2B4-transfected COS-7 cells binding A43-Fc (highest dose): 80.9%
